Laboratory results taken from patent US20220204643A1 (published 2022).
Blank lines part the entries; values can stand above or below the binder they belong to.

How the values were obtained:
extended synaptotagmin 2 = target: T1, extended synaptotagmin 2 (human, UniProt A0FGR8 564-921)
T1 construct: HuProt array protein; labelled _frag; also called ESYT2_frag
T1 sequence: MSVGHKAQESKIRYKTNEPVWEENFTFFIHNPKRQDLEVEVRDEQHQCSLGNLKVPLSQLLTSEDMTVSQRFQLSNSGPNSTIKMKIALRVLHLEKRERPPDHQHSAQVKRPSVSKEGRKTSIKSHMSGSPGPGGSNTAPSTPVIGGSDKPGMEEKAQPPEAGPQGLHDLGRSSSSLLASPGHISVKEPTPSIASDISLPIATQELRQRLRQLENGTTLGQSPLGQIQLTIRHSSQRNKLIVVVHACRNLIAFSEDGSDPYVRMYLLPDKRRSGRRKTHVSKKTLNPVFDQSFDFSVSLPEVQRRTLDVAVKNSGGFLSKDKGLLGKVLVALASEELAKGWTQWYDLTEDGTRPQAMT

[1] = target: T2, homeobox and leucine zipper encoding (human, UniProt Q8IX15 25-550)
T2 construct: HuProt array protein, full-length recombinant from yeast; also called HOMEZ
T2 sequence: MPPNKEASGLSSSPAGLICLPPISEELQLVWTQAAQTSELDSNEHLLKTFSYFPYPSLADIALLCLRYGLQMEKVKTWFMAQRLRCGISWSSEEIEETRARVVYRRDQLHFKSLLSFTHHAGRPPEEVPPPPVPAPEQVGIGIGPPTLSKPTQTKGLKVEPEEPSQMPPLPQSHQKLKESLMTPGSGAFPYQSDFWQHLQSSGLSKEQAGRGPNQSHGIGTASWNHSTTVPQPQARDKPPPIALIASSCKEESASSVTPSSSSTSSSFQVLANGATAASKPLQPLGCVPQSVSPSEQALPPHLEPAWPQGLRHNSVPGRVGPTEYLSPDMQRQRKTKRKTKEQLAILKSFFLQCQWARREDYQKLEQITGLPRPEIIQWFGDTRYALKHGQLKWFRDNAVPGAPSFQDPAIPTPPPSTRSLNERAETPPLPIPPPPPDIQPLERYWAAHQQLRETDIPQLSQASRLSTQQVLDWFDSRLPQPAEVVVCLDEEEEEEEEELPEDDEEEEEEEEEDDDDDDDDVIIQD

[2] = target: T3, BAR/IMD domain containing adaptor protein 2, transcript variant 3 (human, UniProt Q9UQB8 1-511)
T3 construct: HuProt array protein, full-length recombinant from yeast; also called BAIAP2
T3 sequence: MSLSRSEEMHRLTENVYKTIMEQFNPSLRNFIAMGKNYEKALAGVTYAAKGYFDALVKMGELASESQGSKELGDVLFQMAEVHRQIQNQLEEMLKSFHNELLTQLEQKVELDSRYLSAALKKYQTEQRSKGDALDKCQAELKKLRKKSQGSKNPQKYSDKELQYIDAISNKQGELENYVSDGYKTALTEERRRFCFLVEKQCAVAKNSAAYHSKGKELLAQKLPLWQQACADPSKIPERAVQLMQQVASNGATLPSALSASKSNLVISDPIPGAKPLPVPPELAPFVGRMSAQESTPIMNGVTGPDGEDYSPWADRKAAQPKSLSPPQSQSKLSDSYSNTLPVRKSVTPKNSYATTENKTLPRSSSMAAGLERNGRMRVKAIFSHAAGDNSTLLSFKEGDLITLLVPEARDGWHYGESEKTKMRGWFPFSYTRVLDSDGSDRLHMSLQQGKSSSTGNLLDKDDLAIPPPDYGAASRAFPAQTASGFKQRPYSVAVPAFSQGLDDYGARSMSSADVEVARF

[3] = target: T4, leucine rich repeat containing 28, transcript variant 1 (human, UniProt Q86X40 1-367)
T4 construct: HuProt array protein, full-length recombinant from yeast; also called LRRC28
T4 sequence (Q86X40 whole entry, change not shown): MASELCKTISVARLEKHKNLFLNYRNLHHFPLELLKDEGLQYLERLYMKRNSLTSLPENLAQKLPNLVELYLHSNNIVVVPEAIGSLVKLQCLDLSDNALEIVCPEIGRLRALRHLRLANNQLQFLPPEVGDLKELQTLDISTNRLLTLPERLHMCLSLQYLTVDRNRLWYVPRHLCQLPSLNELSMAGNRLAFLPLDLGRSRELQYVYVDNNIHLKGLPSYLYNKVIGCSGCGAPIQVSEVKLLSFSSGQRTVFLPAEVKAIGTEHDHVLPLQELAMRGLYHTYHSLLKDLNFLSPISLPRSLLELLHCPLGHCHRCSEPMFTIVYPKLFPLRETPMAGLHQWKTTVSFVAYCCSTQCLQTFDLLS

[4] = target: T5, KH RNA binding domain containing, signal transduction associated 2, transcript variant 2 (human, UniProt Q5VWX1 1-349)
T5 construct: HuProt array protein, full-length recombinant from yeast; also called KHDRBS2
T5 sequence: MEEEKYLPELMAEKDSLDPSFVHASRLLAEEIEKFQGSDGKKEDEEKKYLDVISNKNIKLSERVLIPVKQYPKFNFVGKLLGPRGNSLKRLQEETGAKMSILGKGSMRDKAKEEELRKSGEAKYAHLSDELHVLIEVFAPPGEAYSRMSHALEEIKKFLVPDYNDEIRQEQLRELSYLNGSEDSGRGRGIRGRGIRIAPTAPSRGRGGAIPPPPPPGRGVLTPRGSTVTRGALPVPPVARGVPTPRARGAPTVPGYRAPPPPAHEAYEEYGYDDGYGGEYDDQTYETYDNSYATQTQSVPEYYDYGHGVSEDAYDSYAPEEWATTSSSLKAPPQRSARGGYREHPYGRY

[5] = target: T6, FA complementation group G (human, UniProt O15287 1-622); experiment: protein array
T6 construct: on protein array; also called FANCG
T6 sequence: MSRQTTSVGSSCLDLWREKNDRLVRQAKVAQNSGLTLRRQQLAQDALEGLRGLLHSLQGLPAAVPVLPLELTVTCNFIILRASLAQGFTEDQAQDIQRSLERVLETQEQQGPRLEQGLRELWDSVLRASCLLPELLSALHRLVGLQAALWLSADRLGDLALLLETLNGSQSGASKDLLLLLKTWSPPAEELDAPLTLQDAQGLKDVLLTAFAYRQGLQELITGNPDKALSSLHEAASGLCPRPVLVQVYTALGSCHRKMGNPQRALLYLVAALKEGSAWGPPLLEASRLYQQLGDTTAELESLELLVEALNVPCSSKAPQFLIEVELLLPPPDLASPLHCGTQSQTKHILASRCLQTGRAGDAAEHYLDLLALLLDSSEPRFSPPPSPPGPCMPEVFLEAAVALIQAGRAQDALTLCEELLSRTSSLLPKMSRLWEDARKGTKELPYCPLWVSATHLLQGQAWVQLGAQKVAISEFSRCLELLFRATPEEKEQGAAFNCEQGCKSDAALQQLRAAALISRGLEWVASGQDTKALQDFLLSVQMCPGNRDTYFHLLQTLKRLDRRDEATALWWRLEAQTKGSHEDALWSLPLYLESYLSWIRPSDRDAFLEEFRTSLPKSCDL

LIM homeobox 5 = target: T7, LIM homeobox 5 (human, UniProt Q9H2C1 1-402)
T7 construct: HuProt array protein, full-length recombinant from yeast; also called LHX5
T7 sequence: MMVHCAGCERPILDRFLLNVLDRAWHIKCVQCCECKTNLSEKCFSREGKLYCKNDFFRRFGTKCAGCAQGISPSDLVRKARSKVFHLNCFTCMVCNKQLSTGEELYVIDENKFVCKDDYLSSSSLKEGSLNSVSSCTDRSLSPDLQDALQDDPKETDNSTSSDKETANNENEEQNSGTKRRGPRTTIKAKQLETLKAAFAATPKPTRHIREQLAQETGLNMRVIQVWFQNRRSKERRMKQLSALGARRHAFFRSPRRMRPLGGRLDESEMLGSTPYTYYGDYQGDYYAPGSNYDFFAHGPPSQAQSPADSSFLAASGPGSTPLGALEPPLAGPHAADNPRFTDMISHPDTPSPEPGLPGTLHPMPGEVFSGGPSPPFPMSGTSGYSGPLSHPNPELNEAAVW

[6] = target: T8, growth factor receptor bound protein 2, transcript variant 1 (human, UniProt P62993 1-217)
T8 construct: HuProt array protein, full-length recombinant from yeast; also called GRB2

[7] = target: T9, sorting nexin 33, transcript variant 1 (human, UniProt Q8WV41 1-574)
T9 construct: HuProt array protein, full-length recombinant from yeast; also called SNX33
T9 sequence: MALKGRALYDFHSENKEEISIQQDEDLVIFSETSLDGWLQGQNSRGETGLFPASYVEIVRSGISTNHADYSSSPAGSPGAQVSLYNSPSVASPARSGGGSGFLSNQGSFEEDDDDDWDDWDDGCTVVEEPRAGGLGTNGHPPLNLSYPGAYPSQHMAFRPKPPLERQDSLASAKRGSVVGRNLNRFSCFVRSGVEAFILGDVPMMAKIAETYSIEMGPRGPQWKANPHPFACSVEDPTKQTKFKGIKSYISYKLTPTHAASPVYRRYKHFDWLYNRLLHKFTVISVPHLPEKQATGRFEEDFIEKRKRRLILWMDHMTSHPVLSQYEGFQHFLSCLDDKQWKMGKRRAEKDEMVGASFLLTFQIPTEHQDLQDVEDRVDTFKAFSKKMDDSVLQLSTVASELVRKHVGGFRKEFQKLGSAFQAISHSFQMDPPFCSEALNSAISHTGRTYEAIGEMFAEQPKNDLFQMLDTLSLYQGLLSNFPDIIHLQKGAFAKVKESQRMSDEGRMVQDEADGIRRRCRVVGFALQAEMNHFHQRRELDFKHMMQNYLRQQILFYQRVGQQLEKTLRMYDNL

- binding result [5]: binds
B5: TBRE1024 (antibody, V domains shown)
VH: PVQLQESGPGLVKPSETLSLTCTVSGGSISSDNYYWSWLRQHPGKGLEWIGYIYFSVTTYYNPSLKSRVTISLDTSKNQFSLKLSSVTAADTAVYYCASGYVSFDLWGQGTLVTVSS
VL: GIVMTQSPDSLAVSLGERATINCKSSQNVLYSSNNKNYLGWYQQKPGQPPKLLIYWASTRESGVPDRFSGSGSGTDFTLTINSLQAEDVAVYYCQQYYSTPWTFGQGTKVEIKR
notes: VH/VL only

- binding result (LIM homeobox 5): binds
- binding result [6]: binds
B6: TCOL1009 (antibody, V domains shown)
VH: PVQLVQSGAEVKKPGASVKVSCKASGDTFPNYVISWVRQAPGQGLEWVGCINTNNGKTNYVQKLQGRVILTTDTSTNTANMELRSLRFDDTAVYYCARERGQVRSYGMDVWGQGTAVTVSS
VL: PYELTQPPSVSVSPGQTANITCSGDKLGDICVCWYQQKPGQSPVLVIYQHNKRPSGIPERFSGSNSGNTATLTISATQATDEAIYYCQSWDSSSVLFGGGTKLTVLG
notes: detected with anti-human IgG Fc

- binding result [7]: binds
B7: TCER1006 (antibody, V domains shown)
VH: EVQLVQSGAEVKKPGESLKISCKGSGYSFTSFWIGWVRQMPGKGLEWMGIIFPADSDTRYSPSFQGQVIISVDKSISTAYLQWSSLKASDTAMYYCARRGVSGGSAWTYYNFFDPWGQGTLVTVAS
VL: PSVLTQPPSVSAAPGQKVTISCSGSSSNIDNNYVSWYQQLPGTAPKLLIYENNKRASGIPDRFSGSKSGTSATLGITGLQTGDEADYYCGTWDSSLSPGGVFGGGTKLTVLG
notes: as for B6

The next lines start with the binder.

B1: TCOL1004 (antibody, V domains shown)
VH: QVQLQESGPGLVKPSQTLSLTCIVSGGSISGDKNFWSWVRQHPEKGLEWLGYISYNGNTYYNPSLISRIIISLDTPKNLFSLRLSSVTVADTAIYYCAREVDIRGDSDAFDIWGRGTVVTVSS
VL: EIVMTQSPATLSVSPGERATLSCRASQSVSTNLAWYQQRPGQAPRLFIFGASTRATGIPARFSGSGSGTEFTLTISSPQPEDSAVYYCQQYTTRPLTFGGGTKVEIKR
notes: as for B6
- binding result (extended synaptotagmin 2): binds

B2: TCOL1006 (antibody, V domains shown)
VH: EVQLVESGGGLVQPGGSLRLSCAASGFPPRSFAMSWVRQAPGKGLEWVSSISGLGNSIYYAESVKGRFITSRDNSKSTVFLLMNSLRAEDTAVYYCAKSAFGGVPDGFDIWGQGTMVTVSS
VL: QSVVTQPPSASGPPGQTVTISCSGGRSNVASHAVHWYQHLPGTAPKLLIYNDHQRPSGVPDRFSGSKSGPSASLAISGLRSEDEADYYCATWDDSLGGRVVFGGGTKLTVLG
notes: as for B6
- binding result [1]: binds
- binding result [2]: binds

B3: TESO1003 (antibody, V domains shown)
VH: QVQLVESGGGVVQPGRSLRLSCAASGFTFSNYDMHWVRQAPGKGLEWVTVVSYDGTNKYYAESVQGRFTISRDNSKNTLYLQMNSLRTEDTAVYYCAKEGGWGNTVTTSYYYYGMDVWGQGTTVTVSS
VL: QIVLTQSPATLSLSPGERATLSCRASQSVSNYLAWYQQKPGQAPRLLIYDASNRATGIPARFSGSGSGTDFTLTISSLEPEDFAVYYCQQRSNWPPYTFGQGTKLDIKR
notes: as for B6
- binding result [3]: binds

B4: TCHO1001 (antibody, V domains shown)
VH: PVHLVQSGAEVKKPGSSVKVSCKLSGGIFSYFAIIWVRQAPGQGLEWMGTIIPIFGTSNYAEKFQDRVAIVADEATSTVYMEVNSLRSEDTAIYFCARDSEVEKSDGYMASTAEYFQLWGQGTLVTVSS
VL: not shown
notes: detected with anti-human IgG Fc; also called TCH01001
- binding result [4]: binds
